This data set has as its target PhiKZ nvRNAP GP55 (beta'-like);PhiKZ nvRNAP GP74 (beta'-like);PhiKZ nvRNAP GP71-73 (beta-like);PhiKZ nvRNAP … (Pseudomonas phage phiKZ;Pseudomonas …, UniProt Q8SDA7;Q8SD88;PDB:8QUE_2;Q8SD39;Q8SD94 1-420;1-677;1-700;1-543;1-521, ||||). The data set can be described thus: cryo-EM structure (3.3 A); 10 mM MgCl2; 1 mM ATP, CTP, GTP, no UTP; Zn2+ in GP55; 40 mM Tris-Cl pH 8.0, 10 mM MgCl2, 5 mM DTT, 1 mM ATP/CTP/GTP, 30 min at 37 C, nvRNAP 0.1 mg/mL with scaffold 1:1; native PAGE 4-20% TGX at 4 C. The note with it: protein: recombinant;recombinant;recombinant;recombinant;recombinant; tags: ;;;;; copies: 1;1;1;1;1; label: Cy5 at 5' end of RNA (printed Cy5-GUAGA); non-template/template DNA with mismatched bubble; RNA hybrid with template (6 bp resolved).

From article PMC7618050, “Structure of the Bacteriophage PhiKZ non-virion RNA Polymerase transcribing from its promoter p119L” come the findings set out here.

B1: p119L RNA/DNA template with RNA extended by 3 nt (mixed)
DNA 1: AGTAATTTTAGTGAATGTATTTGCTATATTGCTATCCTAACAGTTCCCAAAAGCCTAAAGTTACAATATAGGTAC
DNA 2: GTACCTATATTGTAACTTTAGGCTTTTGGGAACTGTCTACATAGCAATATAGCAAATACATTCACTAAAATTACT
RNA: GUAGACAG
Consider B1, for which the binding result is given as “binds”.
